Assay results as given in PMC10163693, “The oncogenic role of NF1 in gallbladder cancer through regulation of YAP1 stability by direct interaction with YAP1” (Journal of Translational Medicine, 2023).

T1: GST-NF1^PPQY (residues 2665-2687) (UniProt P21359-2 2665-2687)
T1 construct: Neurofibromin 1 (NF1), residues 2665-2687, holds the PPQY motif; also called GST-tagged NF1^PPQY; source: purified; not shown: GST, N-terminal, kept
T1 chain (looked up): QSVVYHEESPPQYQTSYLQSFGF


What was measured:
Details in all cases: both partners purified
[1] = target: T2, YAP1^WW1 (as used in ITC) (UniProt P46937 174-204); assay: ITC; 25 °C, PEAQ-ITC; 10 mM NF1^PPQY peptide injected (20 injections of 2 μl) into 1 mM YAP1^WW1 or YAP1^WW2; 10 mM Tris pH 8.0, 100 mM NaCl; one-site binding model
T2 construct: Yes-associated protein 1 (YAP1), first WW domain; the label YAP1^WW1 is defined as residues 174-204 in the pull-down methods; The ITC methods name only YAP1^WW1

[2] = target: T3, YAP1^WW2 (as used in ITC) (UniProt P46937 227-266); assay: as above
T3 construct: Yes-associated protein 1 (YAP1), second WW domain; the label YAP1^WW2 is defined as residues 227-266 in the pull-down methods; The ITC methods name only YAP1^WW2

[3] = target: T1, GST-NF1^PPQY (residues 2665-2687); assay: pull-down; GST, GST-NF1^PPQY or GST-NF1^AAAA prebound on Glutathione Sepharose beads; increasing amounts of His-Sumo-YAP1^WW1 or His-Sumo-YAP1^WW2 added; 20 mM Tris pH 8.0, 150 mM NaCl, 2 h, 4 °C; eluted with 10 mM GSH; SDS-PAGE, Coomassie blue

Kd [1] | Kd [2] | binding result [3] | Binder
320 µM | 346 µM | – | EESPPQYQTS (also called NF1 peptides; source: synthetic peptide (Scilight-Peptide, China)) [NF1^PPQY peptide (residues 2671-2680: EESPPQYQTS)]
– | – | binds | PAGWEMAKTSSGQRYFLNHIDQTTTWQDPRK (domain or fragment, UniProt P46937 174-204, looked up, Yes-associated protein 1 (YAP1), first WW domain, residues 174-204; source: purified; not shown: His, N-terminal, kept; Sumo, N-terminal, kept) [His-Sumo-YAP1^WW1 (residues 174-204)]
– | – | binds | SASGPLPDGWEQAMTQDGEIYYINHKNKTTSWLDPRLDPR (domain or fragment, UniProt P46937 227-266, looked up, Yes-associated protein 1 (YAP1), second WW domain, residues 227-266; source: purified; not shown: His, N-terminal, kept; Sumo, N-terminal, kept) [His-Sumo-YAP1^WW2 (residues 227-266)]
